Source: PMC9368491

Target: β-catenin (endogenous) (UniProt P35222)
Experiment: anti-Cav-1 IP, β-catenin blot
Conditions: reference: WT Cav-1, DMSO; sites Y14

binding against the reference: weaker
Substance: Caveolin-1 (Cav-1) (from UniProt Q03135) Y14F Cav-1, DMSO
